“And” between values parts separate entries of the source, which are not always exact repeats. Identical values can stand only once.
B1: Adenosine receptor A2a, P29274 (parent)
chain: MPIMGSSVYITVELAIAVLAILGNVLVCWAVWLNSNLQNVTNYFVVSLAAADIAVGVLAIPFAITISTGFCAACHGCLFIACFVLVLTQSSIFSLLAIAIDRYIAIRIPLRYNGLVTGTRAKGIIAICWVLSFAIGLTPMLGWNNCGQPKEGKNHSQGCGEGQVACLFEDVVPMNYMVYFNFFACVLVPLLLMLGVYLRIFLAARRQLKQMESQPLPGERARSTLQKEVHAAKSLAIIVGLFALCWLPLHIINCFTFFCPDCSHAPLWLMYLAIVLSHTNSVVNPFIYAYRIREFRQTFRKIIRSHVLRQQEPFKAAGTSARVLAAHGSDGEQVSLRLNGHPPGVWANGSAPHPERRPNGYALGLVSGGSAQESQGNTGLPDVELLSHELKGVCPEPPGLDDPLAQDGAGVS

Variants of: B1
Conditions: Homo sapiens; pH 7.5; Thermal; Tris-HCl 50 mM; NaCl 250 mM; structure 5NM2; whole UniProt chain shown

Variant	change of melting temperature, mutant - wild type (higher = more stable)
MPIMGSSVYITVELAIAVLAILGNVLVCWAVWLNSNLQNVTNYFVVSLAAADILVGVLAIPFAITISTGFCAACHGCLFIACFVLVLAQSSIFSLLAIAIDRYIAIRIPLRYNGLVTGTRAAGIIAICWVLSFAIGLTPMLGWNNCGQPKEGKNHSQGCGEGQVACLFEDVVPMNYMVYFNFFACVLVPLLLMLGVYLRIFLAARRQLKQMESQPLPGERARSTLQKEVHAAKSLAIIAGLFALCWLPLHIINCFTFFCPDCSHAPLWLMYLAIVLSHTNSVVNPFIYAYRIREFRQTFRKIIRSHVLRQQEPFKAAGTSARVLAAHGSDGEQVSLRLNGHPPGVWANGSAPHPERRPNGYALGLVSGGSAQESQGNTGLPDVELLSHELKGVCPEPPGLDDPLAQDGAGVS [A54L T88A V239A K122A]	12 °C and 10 °C and 9 °C

From FireProtDB (doi:10.1016/j.neuropharm.2010.07.001)
